Results reported in patent publication US20180334496A1 (KODIAK SCIENCES, published 2018).
Values joined by “and” are separate entries in the source; they are usually repeats but may differ in a detail not shown here. Equal values may be shown once. Read-outs that look alike come from different tables or passages of the source. Values belong to the binder of their own block, whether it stands above or below them.

Assays:
[1] = target: T1, serum purified human Complement Factor D (human, UniProt P00746 26-253); test: SPR Biacore, antibody on protein A chip, single cycle kinetics, 25 C; earlier run in the table (r34, Rmax 14.8);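 as to koff: antibodies captured to roughly 70 RU on the protein A surface in HBS-EP+ running buffer, with kinetic constants derived by BIAevaluation fitting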;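 as to kon: antibodies captured to roughly 70 RU on the protein A surface in HBS-EP+ running buffer, with kinetic constants derived by BIAevaluation fitting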
T1 construct: Serum purified protein flowed over the captured antibodies; also called CFD; human CFD
T1 sequence (P00746 26-253): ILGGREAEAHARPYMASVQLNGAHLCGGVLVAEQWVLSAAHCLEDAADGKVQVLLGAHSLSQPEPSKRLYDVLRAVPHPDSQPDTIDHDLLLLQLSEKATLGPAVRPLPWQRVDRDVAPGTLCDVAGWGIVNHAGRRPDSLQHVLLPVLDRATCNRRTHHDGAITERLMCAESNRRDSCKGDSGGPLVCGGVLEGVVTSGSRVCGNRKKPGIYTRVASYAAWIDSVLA

[2] = target: T1, serum purified human Complement Factor D; test: SPR Biacore, antibody on protein A chip, single cycle kinetics, 37 C; earlier run in the table (r34, Rmax 17.1);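 as to kon: antibodies captured on the protein A surface to roughly 70 RU in HBS-EP+ buffer, with rate and affinity constants fitted using BIAevaluation software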
[3] = target: T1, serum purified human Complement Factor D; test: SPR Biacore, antibody on protein A chip, single cycle kinetics, 25 C;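 also: antibodies captured to roughly 70 RU on the protein A surface in HBS-EP+ running buffer, with kinetic constants derived by BIAevaluation fitting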
[4] = target: T1, serum purified human Complement Factor D; test: SPR Biacore, antibody on protein A chip, single cycle kinetics, 37 C;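 also: antibodies captured on the protein A surface to roughly 70 RU in HBS-EP+ buffer, with rate and affinity constants fitted using BIAevaluation software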
[5] = target: T2, human Complement Factor D (CFD), purified from human serum (human, UniProt P00746 26-253); test: SPR Biacore, full-length IgG captured on protein A chip, serum purified CFD
T2 construct: serum purified (CompTech A136); also called serum purified CFD; hCFD-Comptech
T2 sequence (P00746 26-253): as above

[6] = target: Histidine-tagged FcγRI (UniProt P12314 16-288, limits assumed); test: SPR (Biacore T200, 25 C), His-tagged FcγRI captured on anti-His CM5 chip, antibody injected, single cycle kinetics
Chain of Histidine-tagged FcγRI (P12314 16-288 limits assumed): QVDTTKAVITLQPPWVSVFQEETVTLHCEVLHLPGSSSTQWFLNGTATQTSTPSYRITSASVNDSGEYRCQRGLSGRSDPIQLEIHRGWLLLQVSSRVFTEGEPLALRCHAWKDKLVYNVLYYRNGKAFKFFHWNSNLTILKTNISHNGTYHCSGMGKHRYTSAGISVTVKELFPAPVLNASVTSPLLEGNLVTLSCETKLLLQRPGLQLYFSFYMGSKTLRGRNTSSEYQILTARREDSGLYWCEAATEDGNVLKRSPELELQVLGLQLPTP

[7] = target: Histidine-tagged FcγRIIIa (UniProt P08637 17-208, limits assumed); test: SPR (Biacore T200, 25 C), His-tagged FcγRIIIa captured on anti-His CM5 chip, antibody injected, single cycle kinetics
Chain of Histidine-tagged FcγRIIIa (P08637 17-208 limits assumed): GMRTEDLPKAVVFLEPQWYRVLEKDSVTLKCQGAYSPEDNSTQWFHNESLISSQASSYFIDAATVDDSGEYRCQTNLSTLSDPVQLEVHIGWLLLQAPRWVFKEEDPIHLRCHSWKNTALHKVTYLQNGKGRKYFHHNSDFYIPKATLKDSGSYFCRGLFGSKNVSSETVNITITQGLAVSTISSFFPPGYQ

[8] = target: T3, purified human C1q (human, UniProt P02745 23-245; P02746 28-253; P02747 29-245); test: ELISA, antibody coated in a 1:2 titration from 10 ug/mL, purified human C1q at 5 ug/mL, HRP anti-human C1q
T3 construct: also called Complement C1q
T3 sequence (P02745 23-245 limits assumed, chain 1 of 3): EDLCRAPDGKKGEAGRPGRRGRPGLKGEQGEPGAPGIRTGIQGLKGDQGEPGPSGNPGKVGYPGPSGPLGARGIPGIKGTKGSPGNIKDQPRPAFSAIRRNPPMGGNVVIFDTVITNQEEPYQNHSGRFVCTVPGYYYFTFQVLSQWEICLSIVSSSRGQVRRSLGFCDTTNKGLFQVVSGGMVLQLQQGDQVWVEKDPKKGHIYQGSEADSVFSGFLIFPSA
T3 sequence (P02746 28-253 limits assumed, chain 2 of 3): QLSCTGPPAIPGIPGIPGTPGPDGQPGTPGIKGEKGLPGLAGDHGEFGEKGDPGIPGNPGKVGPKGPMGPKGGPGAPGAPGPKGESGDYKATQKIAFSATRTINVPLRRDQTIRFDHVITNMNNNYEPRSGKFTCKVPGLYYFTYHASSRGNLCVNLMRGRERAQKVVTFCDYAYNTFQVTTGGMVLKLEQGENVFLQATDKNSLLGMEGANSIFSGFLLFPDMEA
T3 sequence (P02747 29-245 limits assumed, chain 3 of 3): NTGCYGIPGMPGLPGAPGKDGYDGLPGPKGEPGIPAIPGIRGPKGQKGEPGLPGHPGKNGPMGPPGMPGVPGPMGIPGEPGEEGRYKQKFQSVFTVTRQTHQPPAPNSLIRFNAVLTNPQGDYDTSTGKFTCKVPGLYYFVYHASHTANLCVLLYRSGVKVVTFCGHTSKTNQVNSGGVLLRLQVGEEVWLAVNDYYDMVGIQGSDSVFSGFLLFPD

[9] = target: T2, human Complement Factor D (CFD), …; test: cell-based or functional assay
[10] = target: T4, human complement factor D purified from serum (human, UniProt P00746 26-253)
T4 construct: serum-purified (CompTech); also called hCFD-Comptech; CFD
T4 sequence (P00746 26-253): as the sequence (P00746 26-253) above

[11] = target: T5, recombinant human CFD, His-tagged (human, UniProt P00746 26-253); test: SPR MX96
T5 construct: also called rhCFD-His
T5 sequence (P00746 26-253 limits assumed): as the sequence (P00746 26-253) above

[12] = target: T6, recombinant cynomolgus CFD, His-tagged (cynomolgus); test: SPR MX96
T6 construct: also called rcyCFD-His; recombinant Cyno-CFD

[13] = target: T4, human complement factor D purified from …; test: SPR MX96
[14] = target: T7, recombinant human CFD mutant 1 (R157A, R207A), His-tagged (human, UniProt P00746 26-253); test: ELISA
T7 construct: positions are linear positions in the mature protein; also called rhCFD-mut1-His; Mut1
T7 sequence (P00746 26-253 R182A/R232A limits assumed): as the sequence (P00746 26-253) above, with R157A, R207A counted along it

[15] = target: T7, recombinant human CFD mutant 1 (R157A, …); test: ELISA, Mut1 Binding, Bin 3
[16] = target: T2, human Complement Factor D (CFD), …; test: SPR MX96, mAbs amine-coupled, CFD injected
[17] = target: T7, recombinant human CFD mutant 1 (R157A, …); test: SPR MX96
[18] = target: T4, human complement factor D purified from …; remark: listed apart in the source
[19] = target: T7, recombinant human CFD mutant 1 (R157A, …); test: ELISA; remark: listed apart in the source

Kd [5]: 0.23 nM
B2: KCD119 TAF (antibody, V domains shown)
VH: EVQLVESGGGLVQPGGSLRLSCAASGYTFTDYYMNWVRQAPGKGLEWIGDINPNTGDTSYNADFKRRFTFSLDTSKSTAYLQMNSLRAEDTAVYYCTREGPSFAYWGQGTLVTVSS
VL: DIQLTQSPSSLSASVGDRVTITCRSSQTIVHSNGDTYLEWYQQKPGKAPNLLIYKVSNRFSGVPSRFSGSGSGTDFTLTISSLQPEDFATYYCFQGSHVPPTFGQGTKVEIK
notes: full IgG captured on protein A; also called TAF KCD119; KCD119 CDRs grafted into the TAF framework

Kd [10]: 3.47 nM
Kd [11]: 4 nM
Kd [12]: 9.9 nM
Kd [13]: 5.6 nM
Mut1 Binding (% wt) [14]: 5.15 % wt
binding result [15]: no binding
B4: KCD009 (antibody, V domains shown)
VH: QIQLVQSGPELKKPGETVKISCKASGYIFRNYGMNWVKQGPGKGLKWMGWINTYTGEPTYADDFKGRFAFSLETSASTAYLQISNLKNEDTATYFCVRDGPGFAYWGQGTLVTVSA
VL: DVLMTQTPLSLPVSLGDQASISCRSSLIIEHSDGNTYLEWYLQKPGQSPKLLIYKVSNRFSGVPDRFSGSGSGTDFTLKISRVEADDLGVYYCFQGSHVPVTFGAGTNLELK
notes: chimeric

Kd [17]: 0.7 nM
Kd [11]: 3.3 nM
Kd [12]: 4.9 nM
Kd [13]: 3.8 nM
Kd [18]: 1.77 nM
Mut1 Binding (% wt) [19]: 84.6 % wt
B7: KCD070 (antibody, V domains shown)
VH: EIQLQQTGPELVKPGASVKISCKASGYSFTDYIILWVKQSHGKSLEWIGNINPYYDYTSYNLKFKGKATLTVDKSSSTAYMQLNSLTSEDSAVYYCARSDGYYGGDYWGQGTSVTVSS
VL: DIVMTQSHKFMSTSVGDRVSITCKASQDVGTAVAWYQQKPGQSPKLLIYWASTRHTGVPDRFTGSGSGTDFTLTINNVQSEDLADYFCQQYSSYPWTFGGGTTLEIK
notes: chimeric

Further lines, the binder ahead of its results:

B1: 54I59D / 54G101V (antibody, V domains shown)
VH: EVQLVESGGGLVQPGGSLRLSCAASGYTFTDYYMNWVRQAPGKGLEWIGDINPITGDTDYNADFKRRFTFSLDTSKSTAYLQMNSLRAEDTAVYYCTREGPSFAYWGQGTLVTVSS
VL: DIQLTQSPSSLSASVGDRVTITCRSSQTIVHSNGDTYLEWYQQKPGKAPNLLIGKVSNRFSGVPSRFSGSGSGTDFTLTISSLQPEDFATYYCFQGSHVPVTFGQGTKVEIK
notes: KCD119 TAF variant; full antibody captured on protein A; also called 54I59D / 4G101V 5
Kd [1]: 0.00833 nM
Kd [2]: 0.00774 nM
koff [3]: 9.56e-05 s⁻¹
kon [3]: 1.15e+07 M⁻¹ s⁻¹ and 5.91e+06 M⁻¹ s⁻¹
kon [4]: 2.78e+07 M⁻¹ s⁻¹ and 1.36e+07 M⁻¹ s⁻¹

B3: OG1965 (antibody, IgG1)
heavy: EVQLVESGGGLVQPGGSLRLSCAASGYTFTDYYINWVRQAPGKGLEWIGDINPITGDTDYNADFKRRFTFSLDTSKSTAYLQMSSLRAEDTAVYYCTREGPSFAYWGQGTLVTVSSASTKGPSVFPLAPSSKSTSGGTAALGCLVKDYFPEPVTVSWNSGALTSGVHTFPAVLQSSGLYSLSSVVTVPSSSLGTQTYICNVNHKPSNTKVDKKVEPKSCDKTHTCPPCPAPEAAGAPSVFLFPPKPKDTLMISRTPEVTCVVVDVSHEDPEVKFNWYVDGVEVHNAKTKPREEQYNSTYRVVSVLTVLHQDWLNGKEYKCKVSNKALPAPIEKTISKAKGQPREPQVYTLPPSREEMTKNQVSLTCLVKGFYPSDIAVEWESNGQPENNYKTTPPVLDSDGSFFLYSKLTVDKSRWQQGNVFSCSVMHEALHNHYTQKSLSCSPGK
light: DIQLTQSPSSLSASVGDRVTITCRSSQTIVHSNGDTYLEWYQQKPGKAPNLLIRKVSNRFSGVPSRFSGSGSGTDFTLTISSLQPEDFATYYCFQGSHVPVTFGQGTKVEIKRTVAAPSVFIFPPSDEQLKSGTASVVCLLNNFYPREAKVQWKVDNALQSGNSQESVTEQDSKDSTYSLSSTLTLSKADYEKHKVYACEVTHQGLSSPVTKSFNRGEC
notes: humanized IgG1 kappa with L234A, L235A, G237A and L443C (EU); also called 34I54I59D84S/54R101V; 34I54I59D84S (heavy) / 54R101V (light)
binding result [6]: no binding
binding result [7]: no binding
binding result [8]: no binding (tested: 10 ug/mL)
EC50, block of C3bB cleavage (Bb ELISA) [9]: 1.9 nM
EC50, block of Factor B cleavage (western blot) [9]: 7 nM

B5: KCD119 (antibody, V domains shown)
VH: EVQLQQSGPELVKPGASVKISCKASGYTFTDYYTNWMRQRHGESLEWIGDINPNTGDTSYNQKFRVKATLTVDKSSGTAYMGLRSLTSEDSAVYYCTREGPSFAYWGQGTLVTVSA
VL: DVLMTQTPLSLPVSLGDQASISCRSSQTIVHSNGDTYLEWYLQKPGQSPNLLIYKVSNRFSGVPDRFSGSGSGTDFTLKISRVEAEDLGVYYCFQGSHVPPTFGGGTTLEIK
notes: mouse variable domains; full IgG, captured on protein A; also called KCD119-mouse monoclonal antibody; Mouse KCD119
Kd [16]: 0.375 nM and 0.857 nM
Kd [5]: 0.04 nM

B6: KCD048 (antibody, V domains shown)
VH: EVQLQQSGADLVKPGASVKLSCTASGFNIKATYMHWVRQRPEKGLEWIGRIDPANGHTIYDPQFQGKATITSDTSSNTAYLQLNSLTSEDTAVYYCAEAMDYWGQGTSVTVSS
VL: QIVLTQSPAIMSASPGEKVTLTCSATSSVSYMYWYQQKPGSSPRLLIYDTSNLASGVPVRFSGSGSGTSYSLTISRMEAEDDATYYCQQWSNYPFTFGGGTKLEIK
notes: chimeric
Kd [17]: 0.83 nM
Kd [12]: 21 nM
Kd [13]: 1.9 nM
Kd [18]: 0.997 nM
Mut1 Binding (% wt) [19]: 62.3 % wt

B8: KCD023 (antibody, V domains shown)
VH: EVLLQQSGPELVKPGASVKIPCKASGYTFTDYNIDWVKQSHGKSLEWIGDINPNNGGINYNQKFKGKATLTVDKSSSTAYMELRSLTSEDTAVYYCGTGDYAYWGQGTLVTVSA
VL: QIVLTQSPAFMSASPGEKVTLTCSASSSVSSSYLYWYQQKPGSSPKLWIYSTSNLASGVPGRFSGSGSGTSYSLTISSMEAEDAASYFCHQWTSYPPTFGAGTKLELK
notes: chimeric
Kd [10]: 1770 nM
Kd [11]: 4.1 nM
Kd [12]: 6 nM
Kd [13]: 5.3 nM
Mut1 Binding (% wt) [14]: 7.64 % wt
binding result [15]: no binding
